Reference: US20160002355A1 (Genentech, published 2016)

What was measured:
[1] = molecular target: T1, anti-gH antibody (anti-HCMV antibody); test: preliminary anti-HCMV human PK ELISA, anti-ID coat 1 ug/mL, anti-gH in 1% NHS, HRP-sheep anti-huIgG
T1 construct: Anti-HCMV monoclonal antibody with a human IgG Fc (detected with anti-human IgG Fc)
Procedure: The assay was carried out as follows: microtiter ELISA plates were coated with anti-idiotypic monoclonal antibodies at 1 μg/mL in PBS overnight. Anti-CI and anti-gH were diluted in 1% NHS and added to the wells, being subsequently detected with 50 ng/mL (in-well concentration) of HRP-Sheep anti-huIgG.

[2] = molecular target: T1, anti-gH antibody (anti-HCMV antibody); test: Biacore

T1 sequence (VH, as listed by the source, chain 1 of 2): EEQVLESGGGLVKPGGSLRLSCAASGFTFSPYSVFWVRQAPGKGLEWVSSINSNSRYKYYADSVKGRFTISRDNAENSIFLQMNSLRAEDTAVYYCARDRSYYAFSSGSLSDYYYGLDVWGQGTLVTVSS
T1 sequence (VL, as listed by the source, chain 2 of 2): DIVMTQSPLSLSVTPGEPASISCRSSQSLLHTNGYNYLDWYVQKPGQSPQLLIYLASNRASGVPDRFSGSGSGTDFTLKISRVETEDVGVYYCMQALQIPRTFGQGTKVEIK

B1: murine mAb 1.9E1.1 (antibody, IgG1, V domains shown)
VH: QVQLQQSGAELVMPGASVKMSCKASGYTFTDYWMYWVNQRPGQGLEWIGAIDTSDSYTTYNQNFKGKATLTVDESSSTAYMQLNSLTSEDSAVYYCARSGFPLFYYPMDYWGQGTSVTVSS
VL: QAVVTQESALTTSPGETVTLTCRSSTGAVTTSNYANWVQEKPDHLFTGLIGGTVNRAPGVPARFSGSLIGDKAALTITGAQTEDEAVYFCALWYSNHLVFGGGTKLTVL
notes: Used biotin-conjugated in the clinical PK ELISA and the LC-MS/MS capture; also called anti-gH idiotypic antibody; anti-gH anti-ID mAb
fold of OD in the presence of anti-gH over OD in the absence of anti-gH [1]: > 2 fold | Kd [2]: 100 pM
